{"source": "paper PMC12737678", "key": {"[1]": {"target": "SARS-CoV-2 papain-like protease (PLpro) (SARS-CoV-2)"}, "[2]": {"target": "oxytocin (UniProt P01178)", "test": "small-molecule microarray"}}, "data": [{"substance": "oxytocin (from UniProt P01178 20-28) (peptide)", "values": [{"measurement": "IC50 of inhibition of PLpro enzymatic activity (dose-response curve, Figure 5C)", "setting": "[1]", "result": 4.92, "unit": "µM"}]}, {"substance": "SARS-CoV-2 papain-like protease (PLpro) (enzyme)", "values": [{"measurement": "SNR (signal-to-noise ratio on the microarray)", "setting": "[2]", "result": 6.52}]}, {"substance": "SARS-CoV-2 main protease (Mpro) (enzyme)", "values": [{"measurement": "SNR (signal-to-noise ratio on the microarray)", "setting": "[2]", "result": 5.53}]}]}
